Residue numbers refer to the chain shown, from its start. Names may count otherwise.
T1: human LAG-3 expressed on cells (human, UniProt P18627 23-525)
T1 construct: whole, on cells; also called CD223
T1 sequence (looked up): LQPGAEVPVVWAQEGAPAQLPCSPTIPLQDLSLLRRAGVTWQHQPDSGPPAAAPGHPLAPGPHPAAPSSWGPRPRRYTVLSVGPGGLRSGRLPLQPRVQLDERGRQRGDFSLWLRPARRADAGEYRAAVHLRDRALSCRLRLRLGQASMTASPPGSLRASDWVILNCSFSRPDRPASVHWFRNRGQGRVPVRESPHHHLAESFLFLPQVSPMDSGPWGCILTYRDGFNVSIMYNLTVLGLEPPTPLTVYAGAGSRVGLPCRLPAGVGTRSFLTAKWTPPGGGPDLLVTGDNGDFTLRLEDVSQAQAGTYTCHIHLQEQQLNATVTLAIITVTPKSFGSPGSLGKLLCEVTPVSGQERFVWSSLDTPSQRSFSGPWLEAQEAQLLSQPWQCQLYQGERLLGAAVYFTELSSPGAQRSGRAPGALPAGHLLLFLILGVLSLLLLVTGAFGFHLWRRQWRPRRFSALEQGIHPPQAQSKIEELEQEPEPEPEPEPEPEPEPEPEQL

T2: human LAG-3 (human, UniProt P18627 23-450, limits assumed)
T2 construct: Selections used human LAG-3-Fc, human LAG-3-6His, a 30 aa LAG-3 peptide and/or cells with cynomolgus LAG-3; also called CD223
T2 sequence (looked up): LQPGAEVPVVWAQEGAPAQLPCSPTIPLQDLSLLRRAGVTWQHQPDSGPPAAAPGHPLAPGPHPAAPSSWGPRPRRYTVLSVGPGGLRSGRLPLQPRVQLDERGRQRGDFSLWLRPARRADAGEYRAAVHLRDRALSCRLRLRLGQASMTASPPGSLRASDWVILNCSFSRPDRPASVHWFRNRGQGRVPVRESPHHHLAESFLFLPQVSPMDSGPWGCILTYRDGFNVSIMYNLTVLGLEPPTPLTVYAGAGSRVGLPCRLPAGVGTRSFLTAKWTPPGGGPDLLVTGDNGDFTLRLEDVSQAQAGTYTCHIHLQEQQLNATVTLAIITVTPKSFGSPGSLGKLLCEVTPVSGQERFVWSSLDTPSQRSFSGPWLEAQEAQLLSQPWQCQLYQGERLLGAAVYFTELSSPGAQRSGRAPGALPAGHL

B1: P13B02-30 (IgG1 G1m17 N297A) (antibody, V domains shown)
VH: QVQMVQSGAEVKKPGASVKVSCKASGFNIKDTYIHWVRQAPGQGLEWMGEIDPANDNTKYDPKFQGRVTITADTSTSTVYMELSSLRSEDTAVYYCATYYYKYDVGGFDYWGQGTLVTVSS
VL: EIVLTQSPGTLSLSPGERATLSCSVSSSISSSNLHWYQQKPGQAPRLLIYGTSNLASGIPDRFSGSGSGTDFTLTISRLEPEDFAVYYCQQWSSYPFTFGQGTKVEIK
notes: Full length antibody containing IgG1 G1m17 allotype with a N297A mutation (EU)
B2: P13B02-30 (IgG4) (antibody, V domains shown)
VH: B1 VH
VL: B1 VL
B3: full length chimeric anti-LAG-3 antibody P13B02 (antibody, V domains shown)
VH: QVQMKQSGAELVKPGASVKLSCTASGFNIKDTYIHWVKQRPEQGLEWIGEIDPANDNTKYDPKFQGKATITADTSSNTAYLQLSSLTSEDTAVYYCATYYYRYDVGGFDYWGQGTTLTVS
VL: EILLTQSPALMAASPGEKVTITCSVSSSISSSNLHWFQQKSGTSPKLWIYGTSNLASGVPVRFSGSGSGTSYSLTISSMEAEDAATYYCQQWSSYPFTFGSGTKLEIK
notes: Murine variable regions on human heavy (Ch1, Ch2, Ch3) and light (CL) constant regions; full-length IgG1 chimeric antibody; also called chimeric antibody P13B02 (IgG1)
B4: P13B02 Fab (Fab, V domains shown)
VH: B3 VH
VL: B3 VL
notes: Murine Fab, periplasmic extract
B5: P16H05 Fab (Fab, V domains shown)
VH: B3 VH with M4L, K5Q, S7P, T32N, E50S, D56G, T69S, T98S, Y100F
VL: B3 VL with L3V, F37Y, F97H, S101G
notes: as for B4
B6: P14B07 Fab (Fab, V domains shown)
VH: B3 VH with M4L, K5Q, S7P, T32N, E50S, D56G, T69S, A92T, T98S, Y100F
VL: B3 VL with I2N, L3V, F37Y
notes: as for B4
B7: P15B06 Fab (Fab, V domains shown)
VH: EVQLQQSGAELVKPGASVKLSCTASGFNIKDTYMYWVKQRPEQGLDWIGRIDPANGNTHFDPKFQGKATITADTSSNTAYLQLSSLTSEDTAVYYCSTYFYRYDVGGFDYWGQGTTLTVS
VL: B3 VL with E1Q, F37Y, F97L, S101A, I107L
notes: as for B4
B8: P14G03 Fab (Fab, V domains shown)
VH: B3 VH with E42G, D56G
VL: B3 VL with E1D, L3V, H35Y
notes: as for B4
B9: P13B03 Fab (Fab, V domains shown)
VH: B3 VH with Q1E, M4L, K5Q, D56G
VL: B3 VL with I2N, L3V
notes: as for B4
B10: P13A06 Fab (Fab, V domains shown)
VH: B7 VH with E1Q, Q5K, D46E, H59K, F60Y, A79V, Y94F, S97V, T98I, F100S
VL: B3 VL with I2N, L3V, F37Y, F97H, S101G
notes: as for B4
B11: P14F06 Fab (Fab, V domains shown)
VH: B3 VH with T32N, E50S, D56G, T69S, T98S, Y100F
VL: B3 VL with L3V
notes: as for B4

Tests used:
[1] = molecular target: T1, human LAG-3 expressed on cells; experiment: flow cytometry, 10 ug/ml antibody on SEA-activated primary human CD4+ T cells (FIG. 6A)
[2] = molecular target: T2, human LAG-3; experiment: Fab phage display selection; periplasmic extracts screened by ELISA or flow cytometry
[3] = molecular target: T1, human LAG-3 expressed on cells; experiment: flow cytometry, Fab periplasmic extract on Jurkat cells expressing human LAG-3 (FIGS. 1A-1C)
Experimental: The anti-LAG-3 Fabs from periplasmic extracts were tested for binding to LAG-3-expressing cells using flow cytometry. Briefly, wild type and human LAG-3-expressing Jurkat cells were plated at 2×10⁵ cells/well in sample buffer (PBS (Gibco, Cat #10010-015)+0.5% FBS (Gibco, Cat #10270-106)) in 96-well U-bottom plates (Sarstedt). 22 μl of anti-LAG-3 Fab periplasmic extract and 83 μl of diluted anti-c-myc antibody (Gentaur, Clone #9E10, Cat #04-cmyc-9E10) were incubated for 30 minutes at room temperature. 100 μl of the periplasmic extract/anti-c-myc mixture was added to cells and then incubated for one hour on ice. Cells were washed three times and then incubated with a goat anti-mouse APC (BD Biosciences, Cat #550826) for 30 minutes on ice. Cells were washed three times and then analyzed with a FACS machine (BD Accuri6).

Row | Binder | binding result [1] | binding result [2] | binding result [3]
1 | B1 | binds | – | –
2 | B2 | binds | – | –
3 | B3 | binds | – | –
4 | B4 | – | binds | binds
5 | B5 | – | binds | binds
6 | B6 | – | binds | binds
7 | B7 | – | binds | binds
8 | B8 | – | binds | binds
9 | B9 | – | binds | binds
10 | B10 | – | binds | binds
11 | B11 | – | binds | binds

— US20250206818A1 (AGENUS, published 2025)
